Experimental data from patent publication US7067277 (H LUNDBECK A S, dated 2006).
Where a chain is given by its changes, count along the chain named.

T1: human Y2 receptor (human, UniProt P49146 1-381)
T1 sequence (looked up): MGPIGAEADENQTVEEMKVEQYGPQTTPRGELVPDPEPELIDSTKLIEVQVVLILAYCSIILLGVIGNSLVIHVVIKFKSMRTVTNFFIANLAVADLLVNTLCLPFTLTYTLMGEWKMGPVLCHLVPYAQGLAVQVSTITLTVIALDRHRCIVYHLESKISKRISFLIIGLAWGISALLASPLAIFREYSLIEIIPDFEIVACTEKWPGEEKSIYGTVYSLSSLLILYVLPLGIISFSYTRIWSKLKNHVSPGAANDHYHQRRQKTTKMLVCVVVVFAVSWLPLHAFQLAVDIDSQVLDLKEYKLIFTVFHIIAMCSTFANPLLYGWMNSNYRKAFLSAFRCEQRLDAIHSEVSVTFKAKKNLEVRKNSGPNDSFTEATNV

T2: rat GALR2 receptor (rat, UniProt O08726 1-372)
T2 sequence (looked up): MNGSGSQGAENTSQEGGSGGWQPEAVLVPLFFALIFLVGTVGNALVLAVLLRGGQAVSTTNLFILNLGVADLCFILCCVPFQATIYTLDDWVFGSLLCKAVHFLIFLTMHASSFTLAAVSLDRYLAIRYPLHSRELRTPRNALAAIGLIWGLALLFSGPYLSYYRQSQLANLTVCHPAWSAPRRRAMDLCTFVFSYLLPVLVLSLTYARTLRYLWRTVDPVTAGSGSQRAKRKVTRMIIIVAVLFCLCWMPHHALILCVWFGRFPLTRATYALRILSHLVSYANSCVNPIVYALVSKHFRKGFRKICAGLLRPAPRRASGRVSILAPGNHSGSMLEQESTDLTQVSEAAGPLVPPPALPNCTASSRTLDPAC

T3: human GALR2 receptor (human, UniProt O43603 1-387)
T3 sequence (looked up): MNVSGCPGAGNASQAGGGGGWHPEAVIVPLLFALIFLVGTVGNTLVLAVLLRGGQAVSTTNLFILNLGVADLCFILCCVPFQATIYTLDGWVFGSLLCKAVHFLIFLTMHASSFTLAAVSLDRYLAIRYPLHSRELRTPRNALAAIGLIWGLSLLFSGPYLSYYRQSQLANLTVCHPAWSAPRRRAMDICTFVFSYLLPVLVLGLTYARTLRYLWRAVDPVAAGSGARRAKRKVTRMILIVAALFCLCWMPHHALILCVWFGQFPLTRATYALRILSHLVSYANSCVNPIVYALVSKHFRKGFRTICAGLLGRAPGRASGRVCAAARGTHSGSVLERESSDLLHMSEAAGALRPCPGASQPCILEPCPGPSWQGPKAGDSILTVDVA

T4: human α2A adrenergic receptor (human, UniProt P08913 1-465)
T4 sequence (looked up): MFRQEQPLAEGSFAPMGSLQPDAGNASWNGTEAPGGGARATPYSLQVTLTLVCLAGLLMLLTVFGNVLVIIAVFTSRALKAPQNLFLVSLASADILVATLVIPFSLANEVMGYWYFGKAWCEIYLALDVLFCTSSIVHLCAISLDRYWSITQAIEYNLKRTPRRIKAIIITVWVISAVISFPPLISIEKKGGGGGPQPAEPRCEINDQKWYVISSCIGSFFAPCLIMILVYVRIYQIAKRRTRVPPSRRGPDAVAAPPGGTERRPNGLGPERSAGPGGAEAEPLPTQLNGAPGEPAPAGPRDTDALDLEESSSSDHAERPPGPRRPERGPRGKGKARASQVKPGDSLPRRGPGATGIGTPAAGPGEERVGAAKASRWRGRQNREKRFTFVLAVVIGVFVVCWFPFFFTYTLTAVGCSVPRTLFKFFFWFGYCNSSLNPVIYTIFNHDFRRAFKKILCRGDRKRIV

T5: human 5HT1F receptor (human, UniProt P30939 1-366)
T5 sequence (looked up): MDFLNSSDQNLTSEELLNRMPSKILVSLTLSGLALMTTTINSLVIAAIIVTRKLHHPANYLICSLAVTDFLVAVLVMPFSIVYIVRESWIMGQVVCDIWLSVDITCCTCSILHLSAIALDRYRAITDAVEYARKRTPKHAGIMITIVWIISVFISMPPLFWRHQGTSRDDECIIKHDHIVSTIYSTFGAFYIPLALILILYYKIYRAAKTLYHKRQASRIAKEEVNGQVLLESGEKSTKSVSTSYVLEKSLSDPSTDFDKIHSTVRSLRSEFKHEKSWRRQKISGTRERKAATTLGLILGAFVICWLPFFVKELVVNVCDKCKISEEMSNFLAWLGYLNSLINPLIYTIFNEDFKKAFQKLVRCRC

B1: C. elegans Gαq/z5 (other)
chain: MACCLSEEAREQKRINQEIEKQLQRDKRNARRELKLLLLGTGESGKSTFIKQMRIIHGQGYSEEDKRAHIRLVYQNVFMAIQSMIRAMDTLDIKFGNESEELQEKAAVVREVDFESVTSFEEPYVSYIKELWEDSGIQECYDRRREYQLTDSAKYYLSDLRRLAVPDYLPTEQDILRVRVPTTGIIEYPFDLEQIIFRMVDVGGQRSERRKWIHCFENVTSIMFLVALSEYDQVLVECDNENRMEESKALFRTIITYPWFTNSSVILFLNKKDLLEEKILYSHLADYFPEYDGPPRDPIAAREFILKMFVDLNPDADKIIYSHFTCATDTENIRFVFAAVKDTILQHNLKYIGLC
B2: C. elegans Gαq/z9 (other)
chain: B1 chain with H347N
B3: Human Gαq/z5 (Ala→Ser substitution at position 171) (other)
chain: MTLESIMACCLSEEAKEARRINDEIERQLRRDKRDARRELKLLLLGTGESGKSTFIKQMRIIHGSGYSDEDKRGFTKLVYQNIFTAMQAMIRAMDTLKIPYKYEHNKAHAQLVREVDVEKVSAFENPYVDAIKSLWNDPGIQECYDRRREYQLSDSTKYYLNDLDRVADPSYLPTQQDVLRVRVPTTGIIEYPFDLQSVIFRMVDVGGQRSERRKWIHCFENVTSIMFLVALSEYDQVLVESDNENRMEESKALFRTIITYPWFQNSSVILFLNKKDLLEEKIMYSHLVDYFPEYDGPQRDAQAAREFILKMFVDLNPDSDKIIYSHFTCATDTENIRFVFAAVKDTILQLNLKYIGLC

Target: T1, human Y2 receptor
Experiment: cell-based or functional assay

Binder	max Ca2+ signal, COS-7, FLIPR; agonist NPY
B1	7710 fluorescence units
B2	5390 fluorescence units
B3	10900 fluorescence units

Target: human 5HT1B receptor (human, UniProt P28222 1-390)
Sequence (P28222 whole entry): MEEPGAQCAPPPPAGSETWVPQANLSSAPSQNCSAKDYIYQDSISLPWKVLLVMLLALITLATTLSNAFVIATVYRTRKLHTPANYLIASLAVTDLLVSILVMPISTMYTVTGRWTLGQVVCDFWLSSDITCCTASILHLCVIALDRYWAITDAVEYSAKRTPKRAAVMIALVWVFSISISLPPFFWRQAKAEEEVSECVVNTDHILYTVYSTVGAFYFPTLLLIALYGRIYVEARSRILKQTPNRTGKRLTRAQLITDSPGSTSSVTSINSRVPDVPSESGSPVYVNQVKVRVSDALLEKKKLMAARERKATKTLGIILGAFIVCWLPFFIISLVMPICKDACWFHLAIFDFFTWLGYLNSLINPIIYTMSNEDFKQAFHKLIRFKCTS
Experiment: cell-based or functional assay

Binder	max Ca2+ signal, COS-7, FLIPR; agonist 5HT
B1	929 fluorescence units
B2	1220 fluorescence units
B3	405 fluorescence units

Target: T2, rat GALR2 receptor
Experiment: cell-based or functional assay

Binder	max Ca2+ signal, COS-7, FLIPR; agonist GAL
B1	4200 fluorescence units
B2	4470 fluorescence units
B3	4860 fluorescence units

Target: T3, human GALR2 receptor
Experiment: cell-based or functional assay

Binder	max Ca2+ signal, COS-7, FLIPR; agonist GAL
B1	5470 fluorescence units
B2	4900 fluorescence units
B3	5990 fluorescence units

Target: human 5HT6 receptor (human, UniProt P50406 1-440)
Sequence (P50406 whole entry): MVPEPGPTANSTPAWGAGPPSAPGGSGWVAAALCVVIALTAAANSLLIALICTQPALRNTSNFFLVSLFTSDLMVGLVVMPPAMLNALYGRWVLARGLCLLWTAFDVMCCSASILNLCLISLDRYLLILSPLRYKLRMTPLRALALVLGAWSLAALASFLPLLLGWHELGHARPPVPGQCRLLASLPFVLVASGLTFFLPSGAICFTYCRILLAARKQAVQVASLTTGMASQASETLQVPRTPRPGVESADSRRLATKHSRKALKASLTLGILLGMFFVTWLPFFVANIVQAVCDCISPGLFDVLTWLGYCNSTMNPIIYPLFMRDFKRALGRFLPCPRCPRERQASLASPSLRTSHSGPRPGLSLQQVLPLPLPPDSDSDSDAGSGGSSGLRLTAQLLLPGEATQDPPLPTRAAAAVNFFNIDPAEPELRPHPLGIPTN
Experiment: cell-based or functional assay

Binder	max Ca2+ signal, COS-7, FLIPR; agonist 5HT
B1	1290 fluorescence units
B2	2290 fluorescence units
B3	210 fluorescence units

Target: T4, human α2A adrenergic receptor
Experiment: cell-based or functional assay

Binder	max Ca2+ signal, COS-7, FLIPR; agonist NE
B1	7580 fluorescence units
B2	3040 fluorescence units
B3	10900 fluorescence units

Target: human dopamine D1 receptor (human, UniProt P21728 1-446)
Sequence (P21728 whole entry): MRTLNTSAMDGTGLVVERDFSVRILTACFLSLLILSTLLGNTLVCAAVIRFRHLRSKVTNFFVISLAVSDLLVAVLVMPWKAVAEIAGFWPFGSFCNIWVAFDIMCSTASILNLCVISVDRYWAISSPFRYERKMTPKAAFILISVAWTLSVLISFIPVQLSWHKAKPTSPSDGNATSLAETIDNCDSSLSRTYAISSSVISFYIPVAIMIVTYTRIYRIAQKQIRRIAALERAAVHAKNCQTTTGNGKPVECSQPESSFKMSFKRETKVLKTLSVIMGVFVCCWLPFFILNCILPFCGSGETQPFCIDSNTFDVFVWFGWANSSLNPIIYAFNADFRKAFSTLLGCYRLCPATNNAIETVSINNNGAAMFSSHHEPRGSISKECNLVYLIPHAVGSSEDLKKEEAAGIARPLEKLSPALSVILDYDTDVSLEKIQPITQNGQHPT
Experiment: cell-based or functional assay

Binder	max Ca2+ signal, COS-7, FLIPR; agonist DA
B1	12100 fluorescence units
B2	13100 fluorescence units
B3	0 fluorescence units

Target: human GLP-1 receptor (human, UniProt P43220 24-463)
Experiment: cell-based or functional assay

Binder	max Ca2+ signal, COS-7, FLIPR; agonist GLP-1
B1	131 fluorescence units
B2	135 fluorescence units
B3	287 fluorescence units

Target: human Y4 receptor (human, UniProt P50391 1-375)
Sequence (P50391 whole entry): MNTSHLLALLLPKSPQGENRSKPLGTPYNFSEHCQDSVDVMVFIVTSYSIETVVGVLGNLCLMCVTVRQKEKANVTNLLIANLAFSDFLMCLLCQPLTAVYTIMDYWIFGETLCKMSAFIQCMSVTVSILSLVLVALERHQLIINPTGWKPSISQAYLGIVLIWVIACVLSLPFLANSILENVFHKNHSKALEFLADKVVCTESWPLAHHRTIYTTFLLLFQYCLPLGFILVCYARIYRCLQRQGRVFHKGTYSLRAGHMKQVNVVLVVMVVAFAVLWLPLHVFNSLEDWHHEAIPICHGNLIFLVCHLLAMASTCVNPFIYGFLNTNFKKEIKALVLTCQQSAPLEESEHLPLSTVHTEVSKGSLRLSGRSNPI
Experiment: cell-based or functional assay

Binder	max Ca2+ signal, COS-7, FLIPR; agonist PP
B1	9420 fluorescence units
B2	7400 fluorescence units
B3	9970 fluorescence units

Target: human dopamine D5 receptor (human, UniProt P21918 1-477)
Sequence (P21918 whole entry): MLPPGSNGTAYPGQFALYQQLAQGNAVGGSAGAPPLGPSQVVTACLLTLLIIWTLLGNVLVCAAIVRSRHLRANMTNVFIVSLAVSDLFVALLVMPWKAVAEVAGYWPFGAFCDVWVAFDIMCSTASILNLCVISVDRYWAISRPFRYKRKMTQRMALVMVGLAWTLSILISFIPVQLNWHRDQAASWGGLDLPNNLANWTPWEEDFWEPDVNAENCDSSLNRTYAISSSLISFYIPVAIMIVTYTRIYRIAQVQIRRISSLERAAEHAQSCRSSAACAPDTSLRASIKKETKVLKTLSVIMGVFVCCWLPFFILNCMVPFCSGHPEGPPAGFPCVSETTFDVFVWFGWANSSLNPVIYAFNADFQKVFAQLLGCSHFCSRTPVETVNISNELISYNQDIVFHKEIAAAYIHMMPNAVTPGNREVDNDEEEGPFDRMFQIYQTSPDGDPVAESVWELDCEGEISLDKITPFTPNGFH
Experiment: cell-based or functional assay

Binder	max Ca2+ signal, COS-7, FLIPR; agonist DA
B1	657 fluorescence units
B2	797 fluorescence units
B3	782 fluorescence units

Target: human 5HT7 receptor (human, UniProt P34969 1-479)
Sequence (P34969 whole entry): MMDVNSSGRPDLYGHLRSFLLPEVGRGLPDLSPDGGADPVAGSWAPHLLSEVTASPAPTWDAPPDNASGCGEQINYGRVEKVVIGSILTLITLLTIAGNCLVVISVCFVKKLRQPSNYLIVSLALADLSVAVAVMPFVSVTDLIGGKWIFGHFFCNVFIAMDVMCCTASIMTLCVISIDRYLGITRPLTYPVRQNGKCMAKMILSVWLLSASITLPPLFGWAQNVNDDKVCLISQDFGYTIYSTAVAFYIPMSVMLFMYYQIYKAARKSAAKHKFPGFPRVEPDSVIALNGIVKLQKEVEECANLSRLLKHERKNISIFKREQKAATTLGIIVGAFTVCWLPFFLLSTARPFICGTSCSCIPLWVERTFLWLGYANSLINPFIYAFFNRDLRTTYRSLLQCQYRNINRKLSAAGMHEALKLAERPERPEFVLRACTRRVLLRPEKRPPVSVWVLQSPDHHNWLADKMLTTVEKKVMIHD
Experiment: cell-based or functional assay

Binder	max Ca2+ signal, COS-7, FLIPR; agonist 5HT
B1	166 fluorescence units
B2	129 fluorescence units
B3	90 fluorescence units

Target: mouse 5HT5A receptor (mouse, UniProt P30966 1-357)
Sequence (P30966 whole entry): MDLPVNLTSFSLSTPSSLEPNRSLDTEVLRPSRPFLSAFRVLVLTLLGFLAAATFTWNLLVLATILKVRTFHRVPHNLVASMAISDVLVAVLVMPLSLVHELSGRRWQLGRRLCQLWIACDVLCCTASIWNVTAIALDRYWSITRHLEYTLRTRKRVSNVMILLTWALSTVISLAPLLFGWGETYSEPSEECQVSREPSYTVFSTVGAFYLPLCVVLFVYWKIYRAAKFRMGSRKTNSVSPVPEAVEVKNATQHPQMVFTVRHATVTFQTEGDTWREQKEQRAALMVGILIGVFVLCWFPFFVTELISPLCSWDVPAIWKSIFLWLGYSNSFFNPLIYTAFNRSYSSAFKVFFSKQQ
Experiment: cell-based or functional assay

Binder	max Ca2+ signal, COS-7, FLIPR; agonist 5HT
B1	351 fluorescence units
B2	270 fluorescence units
B3	0 fluorescence units

Target: human NPFF1 receptor (human, UniProt Q9GZQ6 1-430)
Sequence (Q9GZQ6 whole entry): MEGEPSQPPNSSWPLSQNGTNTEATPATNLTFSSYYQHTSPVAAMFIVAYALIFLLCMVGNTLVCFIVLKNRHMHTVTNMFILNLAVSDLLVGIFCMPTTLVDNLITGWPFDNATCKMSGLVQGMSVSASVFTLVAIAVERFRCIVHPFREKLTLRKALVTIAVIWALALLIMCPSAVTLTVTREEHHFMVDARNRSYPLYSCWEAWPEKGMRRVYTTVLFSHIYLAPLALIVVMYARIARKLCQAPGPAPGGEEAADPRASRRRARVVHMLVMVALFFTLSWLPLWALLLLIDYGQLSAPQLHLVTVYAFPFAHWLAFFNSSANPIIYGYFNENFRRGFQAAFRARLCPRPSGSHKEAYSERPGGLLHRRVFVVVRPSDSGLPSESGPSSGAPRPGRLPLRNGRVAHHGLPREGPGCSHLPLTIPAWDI
Experiment: cell-based or functional assay

Binder	max Ca2+ signal, COS-7, FLIPR; agonist NPFF
B1	6590 fluorescence units
B2	2970 fluorescence units
B3	4720 fluorescence units

Target: human dopamine D2 receptor (human, UniProt P14416 1-443)
Sequence (P14416 whole entry): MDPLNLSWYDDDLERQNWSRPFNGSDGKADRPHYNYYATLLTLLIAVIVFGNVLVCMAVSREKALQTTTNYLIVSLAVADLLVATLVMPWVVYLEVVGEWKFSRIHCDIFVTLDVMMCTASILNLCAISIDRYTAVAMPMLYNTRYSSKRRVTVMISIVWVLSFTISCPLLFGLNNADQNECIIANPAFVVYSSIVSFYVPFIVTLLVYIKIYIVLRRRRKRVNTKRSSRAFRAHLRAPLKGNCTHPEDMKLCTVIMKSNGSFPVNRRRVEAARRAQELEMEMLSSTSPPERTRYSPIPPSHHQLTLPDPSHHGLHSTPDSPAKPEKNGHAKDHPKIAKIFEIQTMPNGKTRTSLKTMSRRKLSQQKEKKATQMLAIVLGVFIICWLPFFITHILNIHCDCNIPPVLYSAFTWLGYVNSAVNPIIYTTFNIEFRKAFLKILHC
Experiment: cell-based or functional assay

Binder	max Ca2+ signal, COS-7, FLIPR; agonist DA
B1	7620 fluorescence units
B2	4300 fluorescence units
B3	15600 fluorescence units

Target: T5, human 5HT1F receptor
Experiment: cell-based or functional assay

Binder	max Ca2+ signal, COS-7, FLIPR; agonist 5HT
B1	243 fluorescence units
B2	384 fluorescence units
B3	0 fluorescence units
